Patent publication US20230355720A1, “PHARMACEUTICAL COMPOSITION FOR PREVENTING OR TREATING BONE DISEASES, COMPRISING TRIPLE AGONIST OR CONJUGATE THEREOF HAVING ACTIVITY WITH RESPECT TO ALL OF GLUCAGON, GLP-1 AND GLP RECEPTORS” (HANMI PHARM. CO., LTD., priority 2020, published 2023)
Bridge positions count the residues as written; N and C are the ends. Square brackets hold non-standard residues; d marks the D form. Ends that are not written are not given here. * marks the point of attachment. Acetyl(2-(4-imidazolyl)) = O=C(Cc1c[nH]cn1)*; Aib = CC(C)(N)C(=O)O

Legend:
Assay in all cases: cell-based or functional assay
human GLP-1 receptor = human GLP-1 receptor (human, UniProt P43220 24-463)
human GCG receptor = human GCG receptor (human, UniProt P47871 26-477)
human GIP receptor = biological target: T1, human GIP receptor (human, UniProt P48546 22-466)
T1 sequence (looked up): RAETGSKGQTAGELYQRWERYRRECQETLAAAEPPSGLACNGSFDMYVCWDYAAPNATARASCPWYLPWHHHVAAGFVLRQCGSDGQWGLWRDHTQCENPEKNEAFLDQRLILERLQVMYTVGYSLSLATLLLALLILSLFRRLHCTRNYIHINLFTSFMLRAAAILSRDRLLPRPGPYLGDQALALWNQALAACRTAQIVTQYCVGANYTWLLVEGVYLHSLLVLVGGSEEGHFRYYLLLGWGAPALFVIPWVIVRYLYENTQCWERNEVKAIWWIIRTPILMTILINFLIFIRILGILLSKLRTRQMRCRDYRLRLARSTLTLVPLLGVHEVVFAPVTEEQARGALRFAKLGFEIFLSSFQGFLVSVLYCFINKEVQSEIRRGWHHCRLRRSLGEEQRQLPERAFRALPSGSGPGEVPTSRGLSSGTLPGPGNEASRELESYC

Sequence of human GCG receptor (P47871 26-477): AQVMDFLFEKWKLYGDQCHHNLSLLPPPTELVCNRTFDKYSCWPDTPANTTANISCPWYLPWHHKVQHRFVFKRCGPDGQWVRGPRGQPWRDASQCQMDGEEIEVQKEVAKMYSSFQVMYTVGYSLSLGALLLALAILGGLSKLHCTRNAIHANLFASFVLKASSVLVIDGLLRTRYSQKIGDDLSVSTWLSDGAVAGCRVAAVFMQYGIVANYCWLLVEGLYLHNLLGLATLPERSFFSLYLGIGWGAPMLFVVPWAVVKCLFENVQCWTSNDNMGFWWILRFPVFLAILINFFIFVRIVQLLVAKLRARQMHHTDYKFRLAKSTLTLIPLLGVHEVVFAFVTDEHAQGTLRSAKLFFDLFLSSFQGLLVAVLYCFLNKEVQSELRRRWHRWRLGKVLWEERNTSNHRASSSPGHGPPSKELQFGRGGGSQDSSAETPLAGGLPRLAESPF

Binder	In vitro activity (%) compared with native peptide, vs GLP-1 (human GLP-1 receptor) [%]	In vitro activity (%) compared with native peptide, vs Glucagon (human GCG receptor) [%]	In vitro activity (%) compared with native peptide, vs GIP (human GIP receptor) [%]
{Acetyl(2-(4-imidazolyl))}-[Aib]QGTFTSDYSKYLDEKRQKEFVQWLLDTC (bridge 15-19; numbers in words are those of the source; also: ring between positions 16 and 20, type not given here) [triple agonist of SEQ ID NO: 82]	9.5	1.1	< 0.1
H[Aib]QGTFTSDVSKYLDGQAAKEFVAWLLKGC [triple agonist of SEQ ID NO: 7]	13.7	< 0.1	< 0.1
Y[Aib]QGTFTSDCSKYLDERAAKDFVQWLLDHHPSSGQPPPS (bridge 16-20) [triple agonist of SEQ ID NO: 72]	11.5	1	1.6
H[Aib]QGTFTSDYSKYLDEKRQKEFVQWLLDTKC (bridge 16-20; also: ring between positions 16 and 20, type not given here) [triple agonist of SEQ ID NO: 78]	51	14	0.12
Y[Aib]QGTFTSDYSKYLDECAAKEFVQWLLDHHPSSGQPPPS (bridge 16-20) [triple agonist of SEQ ID NO: 64]	64.6	60.1	92.9
Y[Aib]QGTFTSDYSKYLDEKRAKDFVQWLLDHHPSSGQPPPSC (bridge 16-20; also: ring between positions 16 and 20, type not given here) [triple agonist of SEQ ID NO: 76]	10.3	47.6	11.7
{Acetyl(2-(4-imidazolyl))}-[Aib]QGTFTSDYSKYLDEKRQKEFVQWLLNTC (bridge 15-19; numbers in words are those of the source; also: ring between positions 16 and 20, type not given here) [triple agonist of SEQ ID NO: 81]	7.8	0.3	< 0.1
H[Aib]QGTFTSDVSKYLDGQAAQEFVAWLLKGC [triple agonist of SEQ ID NO: 8]	14.2	0.1	< 0.1
{Acetyl(2-(4-imidazolyl))}-[Aib]QGTFTSDYSKCLDEKRAKEFVQWLLDHHPSSGQPPPS (bridge 15-19) [triple agonist of SEQ ID NO: 74]	12.9	0.9	1
Y[Aib]QGTFTSDYSKYLDEKAAKDFVQWLLDHHPSSGQPPPSC (bridge 16-20; also: ring between positions 16 and 20, type not given here) [triple agonist of SEQ ID NO: 77]	38.7	12.2	35.5
H[Aib]QGTFTSDVSKYLDGQAAQEFVAWLLAGC [triple agonist of SEQ ID NO: 9]	32.1	0.13	< 0.1
Y[Aib]QGTFTSDYSKYLDECAAKDFVQWLLDHHPSSGQPPPS (bridge 16-20) [triple agonist of SEQ ID NO: 67]	28.5	46.2	39.8
Y[Aib]QGTFTSDYSKYLDEKAAKEFVQWLLDHHPSSGQPPPSC (bridge 16-20) [triple agonist of SEQ ID NO: 75]	35.1	8.5	18
{Acetyl(2-(4-imidazolyl))}-[Aib]EGTFTSDYSIAMDEIHQKDFVDWLLAEC (bridge 15-19; numbers in words are those of the source; also: ring between positions 16 and 20, type not given here) [triple agonist of SEQ ID NO: 84]	4.2	< 0.1	< 0.1
H[Aib]QGTFTSDYSKCLDEKRAKEFVQWLLDHHPSSGQPPPS (bridge 16-20) [triple agonist of SEQ ID NO: 65]	95.4	25.2	11.6
[Acetyl(2-(4-imidazolyl))][Aib]QGTFTSDCSKYLDERAAQDFVQWLLDGGPSSGAPPPS (not fully specified) [triple agonist of SEQ ID NO: 63]	15.3	< 0.1	< 0.1
Y[Aib]QGTFTSDYSKYLDERACKDFVQWLLDHHPSSGQPPPS (bridge 16-20) [triple agonist of SEQ ID NO: 71]	90.1	12.7	94.7
[Acetyl(2-(4-imidazolyl))][Aib]EGTFTSDYSIAMDEIHQKDFVNWLLAQC (bridge 16-20; not fully specified) [triple agonist of SEQ ID NO: 83]	47.3	1.3	0.4
Y[Aib]QGTFTSDYSKCLDERAAKEFVQWLLDHHPSSGQPPPS (bridge 16-20) [triple agonist of SEQ ID NO: 69]	24.3	9.6	62.8
[Acetyl(2-(4-imidazolyl))][Aib]QGTFTSDYSIAMDEIHQKDFVNWLLAQC (bridge 16-20; not fully specified) [triple agonist of SEQ ID NO: 85]	4.3	< 0.1	0.3
Y[Aib]QGTFTSDYSKCLDEKRAKDFVQWLLDHHPSSGQPPPS (bridge 16-20) [triple agonist of SEQ ID NO: 70]	15.1	71.3	64.4
{Acetyl(2-(4-imidazolyl))}-[Aib]QGTFTSDYSKYLDEKRQKEFVNWLLAQC (bridge 15-19; numbers in words are those of the source; also: ring between positions 16 and 20, type not given here) [triple agonist of SEQ ID NO: 86]	28.4	0.4	0.2
H[Aib]EGTFTSDYSIAMDEIHQKDFVNWLLAQKC (bridge 16-20; not fully specified) [triple agonist of SEQ ID NO: 79]	41.5	4.9	1.4
Y[Aib]QGTFTSDYSKCLDEKAAKEFVQWLLDHHPSSGQPPPS (bridge 16-20) [triple agonist of SEQ ID NO: 68]	27.9	8.8	107
{Acetyl(2-(4-imidazolyl))}-[Aib]QGTFTSDYSKYLDECRAKEFVQWLLDHHPSSGQPPPS (bridge 15-19) [triple agonist of SEQ ID NO: 73]	22.6	5.4	3
Y[Aib]QGTFTSDYSKYLDECRAKDFVQWLLDHHPSSGQPPPS (bridge 16-20) [triple agonist of SEQ ID NO: 66]	15.8	172	17.2
